Where a chain is given by its changes, count along the chain named. In names and notes the source's numbering stands. One block for each molecule: values may come before it.
How the values were obtained:
Test in all cases: pull-down
MBP-3 S287A = target: MBP-3 S287A
MBP-3 D260A = target: MBP-3 D260A
MBP-3 S246D = target: MBP-3 S246D
MBP-3 S287D = target: MBP-3 S287D
MBP-3 S279A = target: MBP-3 S279A
MBP-3 Q243A = target: T1, MBP-3 Q243A
T1 chain: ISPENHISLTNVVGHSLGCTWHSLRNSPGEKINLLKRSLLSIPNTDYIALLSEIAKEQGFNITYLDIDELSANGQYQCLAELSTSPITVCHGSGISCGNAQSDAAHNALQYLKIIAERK

MBP-3 D262A = target: T2, MBP-3 D262A
T2 chain: T1 chain with A49Q, D68A

PKR bound, percent of wt MBP-3 (MBP-3 S287A): 59% | PKR bound, percent of wt MBP-3 (MBP-3 D260A): 63% | PKR bound, percent of wt MBP-3 (MBP-3 S246D): 100% | PKR bound, percent of wt MBP-3 (MBP-3 S287D): 95% | PKR bound, percent of wt MBP-3 (MBP-3 S279A): 23%
Molecule: PKR (K296R)-FLAG (from UniProt P19525 1-551) (enzyme)

PKR bound, percent of wt MBP-3 (MBP-3 Q243A): 9% | PKR bound, percent of wt MBP-3 (MBP-3 D262A): 2%
B1: PKR (K296R)-FLAG (enzyme, UniProt P19525 1-551, looked up)
chain: MAGDLSAGFFMEELNTYRQKQGVVLKYQELPNSGPPHDRRFTFQVIIDGREFPEGEGRSKKEAKNAAAKLAVEILNKEKKAVSPLLLTTTNSSEGLSMGNYIGLINRIAQKKRLTVNYEQCASGVHGPEGFHYKCKMGQKEYSIGTGSTKQEAKQLAAKLAYLQILSEETSVKSDYLSSGSFATTCESQSNSLVTSTLASESSSEGDFSADTSEINSNSDSLNSSSLLMNGLRNNQRKAKRSLAPRFDLPDMKETKYTVDKRFGMDFKEIELIGSGGFGQVFKAKHRIDGKTYVIRRVKYNNEKAEREVKALAKLDHVNIVHYNGCWDGFDYDPETSDDSLESSDYDPENSKNSSRSKTKCLFIQMEFCDKGTLEQWIEKRRGEKLDKVLALELFEQITKGVDYIHSKKLIHRDLKPSNIFLVDTKQVKIGDFGLVTSLKNDGKRTRSKGTLRYMSPEQISSQDYGKEVDLYALGLILAELLHVCDTAFETSKFFTDLRDGIISDIFDKKEKTLLQKLLSKKPEDRPNTSEILRTLTVWKKSPEKNERHTC
